The text below walks through data of paper PMC7241105 (bioRxiv, 2020).

In the assay the target is SARS-CoV-2 receptor binding domain (RBD) (SARS-CoV-2, UniProt P0DTC2). The assay can be described thus: BLI.

B1: CV5 (antibody, V domains shown)
VH: QVQLVQSGAEVKKPGASVKVTCKASGYTFTSYYLHWVRQAPGQGLEWMGIINPSGGTTSYAQKFQGRVTMTRDTSTSTVYMELSSLRSEDTAVYYCARAGRRYSSSDDGAFDIWGQGTMVTVSS
VL: not shown
On to B1, for which the binding result was “binds”.

B2: CV43 (antibody, V domains shown)
VH: QVQLVESGGGVVQPGRSLRLSCAASGFTFSSYAMHWVRQAPGKGLEWVAVISYDGSNKYYADSVKGRFTISRDNSKNTLYLQMNSLRAEDTAVYYCARVTVVHFDYWGQGTLVTVSS
VL: NFMLTQPHSVSESPGKTVTISCTGSSGSIASNYVQWYQQRPGSAPTTVIYEDNQRPSGVPDRFSGSIDSSSNSASLTISGLKTEDEADYYCQSYDSSNWVFGGGTKLTVL
In the case of B2, the binding result is listed as “binds”.
